Three sequences from the Immune Epitope Database (IEDB) can be followed below.

Some results are limits rather than exact numbers.

For one test, the target named is HLA-B*45:06. Put plainly: IEDB peptide-MHC binding, purified MHC/competitive/fluorescence; filed as Kd, often an IC50 or EC50 that approximates it; ≥ and ≤ were set here for values at or beyond the usual limits of such assays. The conditions noted are these: source organism: Yersinia pestis Nepal516.
Another test addresses HLA-B*83:01. The description is as above. The conditions noted are these: source organism: Yersinia pestis Nepal516.
The target of the next test is HLA-B*35:01. The description is as above. The following applies: source organism: Yersinia pestis Nepal516.
In a further test the target is HLA-B*15:42. Described as above. The conditions noted are these: source organism: Yersinia pestis Nepal516.
Test [1] deals with HLA-B*51:01. The description is as above. The following applies: source organism: Yersinia pestis Nepal516.
For a further test, the target named is HLA-A*32:15. Described as above. The conditions noted are these: source organism: Yersinia pestis Nepal516.
The target of test [2] is HLA-B*15:01. Described as above. The conditions noted are these: source organism: Yersinia pestis Nepal516.
The target of a further test is HLA-B*40:13. The test is described as above. The conditions noted are these: source organism: Yersinia pestis Nepal516.
The target of another test is HLA-A*32:07. The description is as above. The conditions noted are these: source organism: Yersinia pestis Nepal516.
The target of another test is HLA-A*68:23. The test is described as above. The following applies: source organism: Yersinia pestis Nepal516.
The next test addresses HLA-B*57:01. Briefly: IEDB peptide-MHC binding, purified MHC/direct/fluorescence; filed as Kd, often an IC50 or EC50 that approximates it; ≥ and ≤ were set here for values at or beyond the usual limits of such assays.
For another test, the target named is HLA-B*73:01. Described as above. The following applies: source organism: Marburg virus - Musoke, Kenya, 1980.
Another test concerns the target HLA-A*31:01. The description is as above. The following applies: source organism: Marburg virus - Musoke, Kenya, 1980.
The target of the next test is HLA-B*08:02. The description is as above. The following applies: source organism: Orthomarburgvirus marburgense.
The target in a further test is HLA-A*11:01. The description is as above. The conditions noted are these: source organism: Marburg virus - Musoke, Kenya, 1980.
For a further test, the target named is HLA-B*15:17. Described as above.
Test [3] deals with HLA-B*15:01. The description is as above.
The next test concerns the target HLA-B*27:05. The description is as above. The following applies: source organism: Marburg virus - Musoke, Kenya, 1980.
A further test deals with HLA-B*07:02. The test is described as above. The following applies: source organism: Marburg virus - Musoke, Kenya, 1980.
For a further test, the target named is HLA-B*18:01. The test is described as above.
For a further test, the target named is HLA-A*01:01. The test is described as above. The following applies: source organism: Marburg virus - Musoke, Kenya, 1980.
The target of a further test is HLA-B*48:01. The test is described as above. The conditions noted are these: source organism: Marburg virus - Musoke, Kenya, 1980.
Another test addresses HLA-A*02:01. The test is described as above.
In the next test the target is HLA-A*68:02. Described as above. The following applies: source organism: Marburg virus - Musoke, Kenya, 1980.
Another test has as its target HLA-B*58:01. The description is as above. The conditions noted are these: source organism: Marburg virus - Musoke, Kenya, 1980.
Another test addresses HLA-B*15:09. The test is described as above. The following applies: source organism: Orthomarburgvirus marburgense.
For the next test, the target named is HLA-B*27:02. The test is described as above. The following applies: source organism: Orthomarburgvirus marburgense.
The target in the next test is HLA-A*26:02. Put plainly: IEDB peptide-MHC binding, purified MHC/competitive/fluorescence; filed as Kd, often an IC50 or EC50 that approximates it; ≥ and ≤ were set here for values at or beyond the usual limits of such assays. The following applies: source organism: Orthomarburgvirus marburgense.
Test [4] deals with HLA-A*02:06. Described as above. The following applies: source organism: Orthomarburgvirus marburgense.
In a further test the target is HLA-A*26:01. Put plainly: IEDB peptide-MHC binding, purified MHC/direct/fluorescence; filed as Kd, often an IC50 or EC50 that approximates it; ≥ and ≤ were set here for values at or beyond the usual limits of such assays. The conditions noted are these: source organism: Vibrio parahaemolyticus AQ3810.
The target of a further test is HLA-A*29:02. Described as above. The following applies: source organism: Vibrio parahaemolyticus AQ3810.
In a further test the target is HLA-A*03:01. The description is as above. The following applies: source organism: Vibrio parahaemolyticus AQ3810.
The target of a further test is HLA-B*27:03. The description is as above. The conditions noted are these: source organism: Vibrio parahaemolyticus AQ3810.
The target in a further test is HLA-A*69:01. The description is as above. The conditions noted are these: source organism: Vibrio parahaemolyticus AQ3810.
Test [5] addresses HLA-B*51:01. Described as above. The following applies: source organism: Vibrio parahaemolyticus AQ3810.
Another test concerns the target HLA-A*02:16. The description is as above. The conditions noted are these: source organism: Vibrio parahaemolyticus AQ3810.
The next test has as its target HLA-A*02:12. The test is described as above. The conditions noted are these: source organism: Vibrio parahaemolyticus AQ3810.
Test [6] has as its target HLA-A*02:06. The test is described as above. The conditions noted are these: source organism: Vibrio parahaemolyticus AQ3810.
The next test has as its target HLA-B*46:01. The description is as above. The following applies: source organism: Vibrio parahaemolyticus AQ3810.
[7] abbreviates: source organism: Marburg virus - Musoke, Kenya, 1980.
The mark [8] stands for this setting: source organism: Vibrio parahaemolyticus AQ3810.

With MPFAWQFGF, the Kd in the test with HLA-B*45:06 was no less than 5 µM; with HLA-B*83:01 it was 0.0297 µM; in the test with HLA-B*35:01, no more than 0.0001 µM; with HLA-B*15:42, no less than 5 µM; with HLA-B*51:01 [1] it was 0.669 µM; with HLA-A*32:15, 0.0032 µM. Moreover, the Kd is no less than 20 µM with HLA-B*15:01 [2], 0.232 µM in the test with HLA-B*40:13, 0.0056 µM with HLA-A*32:07 and 0.0027 µM with HLA-A*68:23.
On to KRLLLKLDF, for which the Kd in the test with HLA-B*57:01 (setting [7]), in the test with HLA-B*73:01, with HLA-A*31:01, with HLA-B*08:02, in the test with HLA-A*11:01 and with HLA-B*15:17 (setting [7]) was no less than 20 µM throughout. Also, the Kd was no less than 20 µM in the test with HLA-B*15:01 [3] (setting [7]); 0.382 µM with HLA-B*27:05; no less than 20 µM with HLA-B*07:02; no less than 20 µM in the test with HLA-B*18:01 (setting [7]); no less than 20 µM with HLA-A*01:01; no less than 20 µM with HLA-B*48:01. The Kd in the test with HLA-A*02:01 (setting [7]) is no less than 20 µM; in the test with HLA-A*68:02, no less than 20 µM; with HLA-B*58:01, no less than 20 µM; in the test with HLA-B*15:09, no less than 20 µM; with HLA-B*27:02, 12.2 µM; in the test with HLA-A*26:02, no less than 20 µM. The same sequence showed a Kd in the test with HLA-A*02:06 [4] of 3.93 µM.
Consider MQGKDFNHL, for which the Kd in the test with HLA-B*57:01 (setting [8]), with HLA-A*26:01, with HLA-A*29:02, with HLA-A*03:01, with HLA-B*27:03 and with HLA-A*69:01 was no less than 20 µM in each case. Besides, the Kd was no less than 20 µM with HLA-B*51:01 [5]; no less than 20 µM with HLA-B*15:17 (setting [8]); no less than 20 µM with HLA-B*15:01 [3] (setting [8]); no less than 20 µM with HLA-A*02:16; no less than 20 µM with HLA-B*18:01 (setting [8]); 1.21 µM with HLA-A*02:12. Moreover, the Kd is 0.009 µM in the test with HLA-A*02:06 [6], no less than 20 µM in the test with HLA-A*02:01 (setting [8]) and no less than 20 µM with HLA-B*46:01.
